Experimental data reported in US20170281764A1 (JN BIOSCIENCES, published 2017).

How the values were obtained:
[1] = biological target: T1, HA-tagged human TIGIT with mutation N37A, on CHO-K1 cells (human, UniProt Q495A1 22-244); test: flow cytometry on CHO-K1 cells transiently expressing HA-tagged TIGIT mutant
T1 construct: Built as for m17
T1 sequence: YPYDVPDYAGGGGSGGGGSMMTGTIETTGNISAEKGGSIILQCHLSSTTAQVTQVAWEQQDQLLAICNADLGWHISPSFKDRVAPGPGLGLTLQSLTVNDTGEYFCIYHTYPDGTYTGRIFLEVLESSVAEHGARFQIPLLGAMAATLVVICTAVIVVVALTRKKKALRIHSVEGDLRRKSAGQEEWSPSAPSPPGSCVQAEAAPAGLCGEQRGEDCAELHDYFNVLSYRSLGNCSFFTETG
Experimental: (§1) For flow cytometry analysis of the anti-hTIGIT antibody binding epitope, HA-tagged human TIGIT proteins with or without single amino acid mutation were transiently transfected into CHO-K1 cells. After 24 hr, transfected cells were suspended in HBSS buffer (Thermo Fisher Scientific, Cat#14175095), and incubated with HuTIG1-IgG1.AA antibody at varying concentrations in 50 μL volume. After 1 hr incubation at 4° C., cells were washed and a second incubation with 50 μL Alexa488 conjugated anti-human IgG(H+L) secondary antibody (Thermo Fisher Scientific, Cat#A-11013) was performed to detect cells bound by antibody. Cells were incubated with an anti-HA antibody (Sigma, Cat# H7411) as a positive control, and non-transfected CHO-K1 cells were used as a negative control. The cells were analyzed on an Attune NxT Cytometer (Thermo Fisher Scientific) and the data were processed using FlowJo software. For each mutant, the saturating antibody binding MFI (mean fluorescence intensity) were normalized to 100% POC (percent of control), and no primary antibody binding control MFI were normalized to 0% POC. Data were then fit to a four parameter non-linear sigmoidal curve using GraphPad Prism 7 curve fitting using following formula: Y=Bottom+(Top−Bottom)/(1+10^{((Log EC}^₅₀^{-X)*HillSlope)}).
(§2) All of these residues co-locate to one discrete region on the front ([…] structure of the TIGIT IgV extracellular domain (FIG. 28).

[2] = biological target: T2, HA-tagged human TIGIT with mutation Q35A, on CHO-K1 cells (human, UniProt Q495A1 22-244); test: as above
T2 construct: Built as for m17
T2 sequence: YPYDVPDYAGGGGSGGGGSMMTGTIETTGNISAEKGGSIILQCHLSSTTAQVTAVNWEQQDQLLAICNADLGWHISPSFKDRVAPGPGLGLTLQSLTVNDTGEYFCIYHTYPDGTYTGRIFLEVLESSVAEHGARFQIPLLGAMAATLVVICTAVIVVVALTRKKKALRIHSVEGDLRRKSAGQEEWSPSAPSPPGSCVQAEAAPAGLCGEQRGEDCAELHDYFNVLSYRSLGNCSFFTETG
Experimental: as §1, §2

[3] = biological target: T3, HA-tagged human TIGIT with mutation N49A, on CHO-K1 cells (human, UniProt Q495A1 22-244); test: as above
T3 sequence: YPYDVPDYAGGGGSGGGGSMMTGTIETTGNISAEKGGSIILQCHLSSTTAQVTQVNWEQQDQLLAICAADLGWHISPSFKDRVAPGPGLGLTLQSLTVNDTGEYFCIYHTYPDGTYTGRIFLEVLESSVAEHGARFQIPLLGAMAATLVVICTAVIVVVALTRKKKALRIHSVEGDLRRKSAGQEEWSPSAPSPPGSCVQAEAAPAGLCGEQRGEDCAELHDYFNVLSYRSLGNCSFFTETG
Experimental: as §1, §2

[4] = biological target: T4, HA-tagged human TIGIT with mutation H90A, on CHO-K1 cells (human, UniProt Q495A1 22-244); test: as above
T4 construct: Built as for m17
T4 sequence: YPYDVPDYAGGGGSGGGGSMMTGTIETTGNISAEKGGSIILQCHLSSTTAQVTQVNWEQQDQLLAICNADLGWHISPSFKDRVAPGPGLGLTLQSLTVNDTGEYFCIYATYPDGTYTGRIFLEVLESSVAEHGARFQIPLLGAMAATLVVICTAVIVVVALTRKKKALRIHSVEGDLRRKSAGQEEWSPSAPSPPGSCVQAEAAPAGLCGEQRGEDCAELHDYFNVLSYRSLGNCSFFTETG
Experimental: as §1, §2

[5] = biological target: T5, HA-tagged human TIGIT with mutation D51A, on CHO-K1 cells (human, UniProt Q495A1 22-244); test: as above
T5 construct: Built as for m17
T5 sequence: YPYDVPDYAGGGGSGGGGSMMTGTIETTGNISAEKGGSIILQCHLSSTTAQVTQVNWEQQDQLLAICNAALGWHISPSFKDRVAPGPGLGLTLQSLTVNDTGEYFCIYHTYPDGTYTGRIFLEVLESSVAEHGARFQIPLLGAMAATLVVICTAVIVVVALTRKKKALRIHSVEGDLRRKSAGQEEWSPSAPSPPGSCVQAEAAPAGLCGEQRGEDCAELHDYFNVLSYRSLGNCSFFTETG
Experimental: as §1, §2

I88A = biological target: T6, I88A; test: flow cytometry titration on CHO-K1 cells transiently expressing the HA-tagged TIGIT mutant, Alexa488 anti-human IgG detection, four-parameter fit of percent of control, nM is from the concentration axis and paragraph 252
T6 construct: also called HA-tagged human TIGIT with mutation I88A, on CHO-K1 cells
T6 single chain: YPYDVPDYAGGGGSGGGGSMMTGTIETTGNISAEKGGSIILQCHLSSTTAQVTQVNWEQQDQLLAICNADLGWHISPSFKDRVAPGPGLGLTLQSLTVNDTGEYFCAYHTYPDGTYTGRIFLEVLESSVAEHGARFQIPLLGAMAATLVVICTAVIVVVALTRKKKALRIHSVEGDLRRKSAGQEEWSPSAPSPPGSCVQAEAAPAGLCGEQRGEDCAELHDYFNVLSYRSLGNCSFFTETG
Experimental: as §1, §2

Y92A = biological target: T7, Y92A; test: as above
T7 construct: also called HA-tagged human TIGIT with mutation Y92A, on CHO-K1 cells
T7 single chain: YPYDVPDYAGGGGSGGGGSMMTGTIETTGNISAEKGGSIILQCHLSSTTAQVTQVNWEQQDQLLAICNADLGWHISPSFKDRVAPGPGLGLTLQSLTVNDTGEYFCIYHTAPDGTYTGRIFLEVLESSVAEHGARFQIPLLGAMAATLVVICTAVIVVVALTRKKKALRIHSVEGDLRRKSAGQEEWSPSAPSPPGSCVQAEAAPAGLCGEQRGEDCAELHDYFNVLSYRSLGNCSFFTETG
Experimental: as §1, §2

B1: HuTIG1-IgG1.AA (humanized IgG1/kappa form of TIG1, L234A/L235A) (antibody)
heavy: not shown
light: DIQMTQSPSSLSASVGDRVTITCRASKSISKYLAWYQQKPGKAPKLLIYSGSTLQSGVPSRFSGSGSGTDFTLTISSLQPEDFATYYCQQHNEYPWTFGGGTKVEIKRTVAAPSVFIFPPSDEQLKSGTASVVCLLNNFYPREAKVQWKVDNALQSGNSQESVTEQDSKDSTYSLSSTLTLSKADYEKHKVYACEVTHQGLSSPVTKSFNRGEC
notes: Mature full chains; also called humanized TIG1
fold decrease in binding affinity against wild type human TIGIT [1]: > 10 fold | fold decrease in binding affinity against wild type human TIGIT [2]: > 10 fold | fold decrease in binding affinity against wild type human TIGIT [3]: > 10 fold | fold decrease in binding affinity against wild type human TIGIT [4]: > 10 fold | fold decrease in binding affinity against wild type human TIGIT [5]: > 10 fold | EC50 (I88A): 0.591 nM | EC50 (Y92A): 2.12 nM
